To fix the notation:
B1: Atos homolog protein B (Homo sapiens), Q7L5A3 (parent)
chain: MRHVQAEPSPSSEPEAGPSQPPVRQGALQGGLLMGYSPAGGATSPGVYQVSIFSPPAGTSEPHRALKRQAPSTEGPRELKRGPGLGAREGLPPEEPSTVGLLGPEGPGLGLGVASQHFSHRGLCVVEQRSSVTSSWTSGAWSPPCPPSNASCNTLHTRDWASPDPGGQGSLGESPGPAPPGQLHTLDTDLHSLAQIGGKSPVAGVGNGGSLWPRESPGTANGHSPEHTPPGPGPPGPCPTKRRLLPAGEAPDVSSEEEGPAPRRRRGSLGHPTAANSSDAKATPFWSHLLPGPKEPVLDPTDCGPMGRRLKGARRLKLSPLRSLRKGPGLLSPPSASPVPTPAVSRTLLGNFEESLLRGRFAPSGHIEGFTAEIGASGSYCPQHVTLPVTVTFFDVSEQNAPAPFLGIVDLNPLGRKGYSVPKVGTVQVTLFNPNQTVVKMFLVTFDFSDMPAAHMTFLRHRLFLVPVGEEGNANPTHRLLCYLLHLRFRSSRSGRLSLHGDIRLLFSRRSLELDTGLPYELQAVTEAPHNPRYSPLP
partner: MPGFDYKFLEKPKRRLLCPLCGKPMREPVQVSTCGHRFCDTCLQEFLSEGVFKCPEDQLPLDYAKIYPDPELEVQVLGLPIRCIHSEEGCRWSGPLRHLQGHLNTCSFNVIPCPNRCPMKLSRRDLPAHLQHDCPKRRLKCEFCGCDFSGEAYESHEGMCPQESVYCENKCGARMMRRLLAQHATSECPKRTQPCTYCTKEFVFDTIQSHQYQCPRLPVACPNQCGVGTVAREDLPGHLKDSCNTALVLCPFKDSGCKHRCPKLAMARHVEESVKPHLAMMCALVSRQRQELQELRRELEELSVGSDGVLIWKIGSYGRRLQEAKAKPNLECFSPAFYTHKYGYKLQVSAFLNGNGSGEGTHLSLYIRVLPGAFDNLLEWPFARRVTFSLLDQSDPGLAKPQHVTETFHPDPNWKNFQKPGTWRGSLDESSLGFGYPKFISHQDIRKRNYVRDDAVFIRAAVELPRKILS
B2: Liprin-alpha-1 (Homo sapiens), Q13136 (parent)
chain: MMCEVMPTISEAEGPPGGGGGHGSGSPSQPDADSHFEQLMVSMLEERDRLLDTLRETQETLALTQGKLHEVGHERDSLQRQLNTALPQEFAALTKELNVCREQLLEREEEIAELKAERNNTRLLLEHLECLVSRHERSLRMTVVKRQAQSPAGVSSEVEVLKALKSLFEHHKALDEKVRERLRVALERCSLLEEELGATHKELMILKEQNNQKKTLTDGVLDINHEQENTPSTSGKRSSDGSLSHEEDLAKVIELQEIISKQSREQSQMKERLASLSSHVTELEEDLDTARKDLIKSEEMNTKLQRDVREAMAQKEDMEERITTLEKRYLAAQREATSVHDLNDKLENEIANKDSMHRQTEDKNRQLQERLELAEQKLQQTLRKAETLPEVEAELAQRVAALSKAEERHGNIEERLRQMEAQLEEKNQELQRARQREKMNEEHNKRLSDTVDKLLSESNERLQLHLKERMAALEDKNSLLREVESAKKQLEETQHDKDQLVLNIEALRAELDHMRLRGASLHHGRPHLGSVPDFRFPMADGHTDSYSTSAVLRRPQKGRLAALRDEPSKVQTLNEQDWERAQQASVLANVAQAFESDADVSDGEDDRDTLLSSVDLLSPSGQADAHTLAMMLQEQLDAINKEIRLIQEEKENTEQRAEEIESRVGSGSLDNLGRFRSMSSIPPYPASSLASSSPPGSGRSTPRRIPHSPAREVDRLGVMTLLPPSREEVRDDKTTIKCETSPPSSPRALRLDRLHKGALHTVSHEDIRDIRNSTGSQDGPVSNPSSSNSSQDSLHKAPKKKGIKSSIGRLFGKKEKGRPGQTGKEALGQAGVSETDNSSQDALGLSKLGGQAEKNRKLQKKHELLEEARRQGLPFAQWDGPTVVVWLELWVGMPAWYVAACRANVKSGAIMSALSDTEIQREIGISNPLHRLKLRLAIQEIMSLTSPSAPPTSRTTLAYGDMNHEWIGNEWLPSLGLPQYRSYFMECLVDARMLDHLTKKDLRGQLKMVDSFHRNSFQCGIMCLRRLNYDRKELERKREESQSEIKDVLVWSNDRVIRWILSIGLKEYANNLIESGVHGALLALDETFDFSALALLLQIPTQNTQARAVLEREFNNLLVMGTDRRFDEDDDKSFRRAPSWRKKFRPKDIRGLAAGSAETLPANFRVTSSMSSPSMQPKKMQMDGNVSGTQRLDSATVRTYSC
partner: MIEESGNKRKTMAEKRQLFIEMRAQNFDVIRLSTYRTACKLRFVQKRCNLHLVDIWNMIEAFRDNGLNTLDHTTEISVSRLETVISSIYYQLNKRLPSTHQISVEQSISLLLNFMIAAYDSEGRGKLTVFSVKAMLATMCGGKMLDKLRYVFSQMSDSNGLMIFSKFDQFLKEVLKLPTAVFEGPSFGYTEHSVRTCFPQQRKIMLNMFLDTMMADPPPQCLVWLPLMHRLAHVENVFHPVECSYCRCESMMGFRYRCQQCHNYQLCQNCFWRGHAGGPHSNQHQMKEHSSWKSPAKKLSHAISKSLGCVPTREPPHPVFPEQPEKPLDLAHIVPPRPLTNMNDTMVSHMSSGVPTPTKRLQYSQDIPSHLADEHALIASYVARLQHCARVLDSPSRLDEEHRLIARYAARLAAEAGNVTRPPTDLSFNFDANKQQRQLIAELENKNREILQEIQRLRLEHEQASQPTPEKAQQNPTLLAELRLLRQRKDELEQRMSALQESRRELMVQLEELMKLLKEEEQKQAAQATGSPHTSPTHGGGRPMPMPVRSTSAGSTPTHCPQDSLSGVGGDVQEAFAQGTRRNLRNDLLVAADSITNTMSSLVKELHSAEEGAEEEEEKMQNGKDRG
B3: Coiled-coil alpha-helical rod protein 1 (Homo sapiens), Q8TD31 (parent)
chain: MFPPSGSTGLIPPSHFQARPLSTLPRMAPTWLSDIPLVQPPGHQDVSERRLDTQRPQVTMWERDVSSDRQEPGRRGRSWGLEGSQALSQQAEVIVRQLQELRRLEEEVRLLRETSLQQKMRLEAQAMELEALARAEKAGRAEAEGLRAALAGAEVVRKNLEEGSQRELEEVQRLHQEQLSSLTQAHEEALSSLTSKAEGLEKSLSSLETRRAGEAKELAEAQREAELLRKQLSKTQEDLEAQVTLVENLRKYVGEQVPSEVHSQTWELERQKLLETMQHLQEDRDSLHATAELLQVRVQSLTHILALQEEELTRKVQPSDSLEPEFTRKCQSLLNRWREKVFALMVQLKAQELEHSDSVKQLKGQVASLQEKVTSQSQEQAILQRSLQDKAAEVEVERMGAKGLQLELSRAQEARRRWQQQTASAEEQLRLVVNAVSSSQIWLETTMAKVEGAAAQLPSLNNRLSYAVRKVHTIRGLIARKLALAQLRQESCPLPPPVTDVSLELQQLREERNRLDAELQLSARLIQQEVGRAREQGEAERQQLSKVAQQLEQELQQTQESLASLGLQLEVARQGQQESTEEAASLRQELTQQQELYGQALQEKVAEVETRLREQLSDTERRLNEARREHAKAVVSLRQIQRRAAQEKERSQELRRLQEEARKEEGQRLARRLQELERDKNLMLATLQQEGLLSRYKQQRLLTVLPSLLDKKKSVVSSPRPPECSASAPVAAAVPTRESIKGSLSVLLDDLQDLSEAISKEEAVCQGDNLDRCSSSNPQMSS
partner: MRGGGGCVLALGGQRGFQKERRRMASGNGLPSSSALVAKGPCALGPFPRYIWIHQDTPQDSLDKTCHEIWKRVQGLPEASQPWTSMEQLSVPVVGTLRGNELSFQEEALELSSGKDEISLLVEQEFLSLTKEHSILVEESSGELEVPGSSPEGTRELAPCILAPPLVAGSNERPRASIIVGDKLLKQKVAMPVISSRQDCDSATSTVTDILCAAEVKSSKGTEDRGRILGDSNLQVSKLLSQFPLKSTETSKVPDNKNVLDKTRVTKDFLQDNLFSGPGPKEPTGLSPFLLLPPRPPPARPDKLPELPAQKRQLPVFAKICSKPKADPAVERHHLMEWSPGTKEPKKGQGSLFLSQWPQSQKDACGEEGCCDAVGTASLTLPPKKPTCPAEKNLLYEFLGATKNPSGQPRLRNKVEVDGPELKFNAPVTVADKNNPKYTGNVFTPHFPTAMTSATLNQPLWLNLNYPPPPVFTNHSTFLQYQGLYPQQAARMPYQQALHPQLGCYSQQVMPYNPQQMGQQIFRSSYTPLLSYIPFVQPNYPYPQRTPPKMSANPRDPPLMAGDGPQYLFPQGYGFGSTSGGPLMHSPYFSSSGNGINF
B4: Coiled-coil alpha-helical rod protein 1 (Homo sapiens), Q8TD31 (parent)
chain: B3 chain
partner: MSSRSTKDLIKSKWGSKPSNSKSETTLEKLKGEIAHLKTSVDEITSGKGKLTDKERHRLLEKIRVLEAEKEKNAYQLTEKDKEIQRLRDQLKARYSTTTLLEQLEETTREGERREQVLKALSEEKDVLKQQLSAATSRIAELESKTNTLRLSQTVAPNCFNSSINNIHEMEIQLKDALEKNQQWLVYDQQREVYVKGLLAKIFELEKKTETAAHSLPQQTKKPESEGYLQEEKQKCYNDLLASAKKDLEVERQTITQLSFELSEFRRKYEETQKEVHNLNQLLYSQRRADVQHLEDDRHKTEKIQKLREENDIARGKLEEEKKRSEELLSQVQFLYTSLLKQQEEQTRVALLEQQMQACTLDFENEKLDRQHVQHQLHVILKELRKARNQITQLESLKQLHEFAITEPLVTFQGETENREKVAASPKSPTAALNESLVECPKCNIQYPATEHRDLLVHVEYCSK

Results on five variants are retold here after IntAct's records for PubMed 29892012.

In the first experiment the parent is B1. The settings on record: with traf4_human TRAF4, Q9BUZ4.
Regarding C381Y, the “effect of a mutation on the interaction” value is on record as “disrupting interaction strength”.

Variants of B2 are the subject of the next experiment. The note with it: with dtnb_human DTNB.
Regarding L330F, the “effect of a mutation on the interaction” value is “with no effect”.

In another experiment the parent is B2. The note with it: with dtnb_human DTNB. The source holds these as a separate data set.
In the case of P389L, the “effect of a mutation on the interaction” value is recorded as “with no effect”.

Variants of B3 are the subject of a further experiment. The settings on record: with ca094_human C1orf94, Q6P1W5.
As to W337R, the “effect of a mutation on the interaction” value was “disrupting interaction strength”.

Another experiment covers variants of B4. The settings on record: with cep55_human CEP55, Q53EZ4.
Turning to W337R, the “effect of a mutation on the interaction” value is listed as “disrupting interaction strength”.
